Measurements as given in patent US20120244166A1 (published 2012).

B1: 2F5 L100AS-V100DS (antibody, V domains shown)
VH: RITLKESGPPLVKPTQTLTLTCSFSGFSLSDFGVGVGWIRQPPGKALEWLAIIYSDDDKRYSPSLNTRLTITKDTSKNQVVLVMTRVSPVDTATYFCAHRRGPTTSFGSPIARGPVNAMDVWGQGITVTISS
VL: ALQLTQSPSSLSASVGDRITITCRASQGVTSALAWYRQKPGSPPQLLIYDASSLESGVPSRFSGSGSGTEFTLTISTLRPEDFATYYCQQLHFYPHTFGGGTRVDVRR
B2: 2F5 V100DW (antibody, V domains shown)
VH: RITLKESGPPLVKPTQTLTLTCSFSGFSLSDFGVGVGWIRQPPGKALEWLAIIYSDDDKRYSPSLNTRLTITKDTSKNQVVLVMTRVSPVDTATYFCAHRRGPTTLFGWPIARGPVNAMDVWGQGITVTISS
VL: ALQLTQSPSSLSASVGDRITITCRASQGVTSALAWYRQKPGSPPQLLIYDASSLESGVPSRFSGSGSGTEFTLTISTLRPEDFATYYCQQLHFYPHTFGGGTRVDVRR
B3: 2F5 F100BS-I100FS (antibody, V domains shown)
VH: RITLKESGPPLVKPTQTLTLTCSFSGFSLSDFGVGVGWIRQPPGKALEWLAIIYSDDDKRYSPSLNTRLTITKDTSKNQVVLVMTRVSPVDTATYFCAHRRGPTTLSGVPSARGPVNAMDVWGQGITVTISS
VL: ALQLTQSPSSLSASVGDRITITCRASQGVTSALAWYRQKPGSPPQLLIYDASSLESGVPSRFSGSGSGTEFTLTISTLRPEDFATYYCQQLHFYPHTFGGGTRVDVRR
B4: 2F5 L100AS-F100BS (antibody, V domains shown)
VH: RITLKESGPPLVKPTQTLTLTCSFSGFSLSDFGVGVGWIRQPPGKALEWLAIIYSDDDKRYSPSLNTRLTITKDTSKNQVVLVMTRVSPVDTATYFCAHRRGPTTSSGVPIARGPVNAMDVWGQGITVTISS
VL: ALQLTQSPSSLSASVGDRITITCRASQGVTSALAWYRQKPGSPPQLLIYDASSLESGVPSRFSGSGSGTEFTLTISTLRPEDFATYYCQQLHFYPHTFGGGTRVDVRR
B5: 2F5 L100AW-V100DW (antibody, V domains shown)
VH: RITLKESGPPLVKPTQTLTLTCSFSGFSLSDFGVGVGWIRQPPGKALEWLAIIYSDDDKRYSPSLNTRLTITKDTSKNQVVLVMTRVSPVDTATYFCAHRRGPTTWFGWPIARGPVNAMDVWGQGITVTISS
VL: ALQLTQSPSSLSASVGDRITITCRASQGVTSALAWYRQKPGSPPQLLIYDASSLESGVPSRFSGSGSGTEFTLTISTLRPEDFATYYCQQLHFYPHTFGGGTRVDVRR
B6: 2F5 V100DS (antibody, V domains shown)
VH: RITLKESGPPLVKPTQTLTLTCSFSGFSLSDFGVGVGWIRQPPGKALEWLAIIYSDDDKRYSPSLNTRLTITKDTSKNQVVLVMTRVSPVDTATYFCAHRRGPTTLFGSPIARGPVNAMDVWGQGITVTISS
VL: ALQLTQSPSSLSASVGDRITITCRASQGVTSALAWYRQKPGSPPQLLIYDASSLESGVPSRFSGSGSGTEFTLTISTLRPEDFATYYCQQLHFYPHTFGGGTRVDVRR
B7: 2F5 F100BS (antibody, V domains shown)
VH: RITLKESGPPLVKPTQTLTLTCSFSGFSLSDFGVGVGWIRQPPGKALEWLAIIYSDDDKRYSPSLNTRLTITKDTSKNQVVLVMTRVSPVDTATYFCAHRRGPTTLSGVPIARGPVNAMDVWGQGITVTISS
VL: ALQLTQSPSSLSASVGDRITITCRASQGVTSALAWYRQKPGSPPQLLIYDASSLESGVPSRFSGSGSGTEFTLTISTLRPEDFATYYCQQLHFYPHTFGGGTRVDVRR
B8: 2F5 F100BW (antibody, V domains shown)
VH: RITLKESGPPLVKPTQTLTLTCSFSGFSLSDFGVGVGWIRQPPGKALEWLAIIYSDDDKRYSPSLNTRLTITKDTSKNQVVLVMTRVSPVDTATYFCAHRRGPTTLWGVPIARGPVNAMDVWGQGITVTISS
VL: ALQLTQSPSSLSASVGDRITITCRASQGVTSALAWYRQKPGSPPQLLIYDASSLESGVPSRFSGSGSGTEFTLTISTLRPEDFATYYCQQLHFYPHTFGGGTRVDVRR
B9: 2F5 L100AS (antibody, V domains shown)
VH: RITLKESGPPLVKPTQTLTLTCSFSGFSLSDFGVGVGWIRQPPGKALEWLAIIYSDDDKRYSPSLNTRLTITKDTSKNQVVLVMTRVSPVDTATYFCAHRRGPTTSFGVPIARGPVNAMDVWGQGITVTISS
VL: ALQLTQSPSSLSASVGDRITITCRASQGVTSALAWYRQKPGSPPQLLIYDASSLESGVPSRFSGSGSGTEFTLTISTLRPEDFATYYCQQLHFYPHTFGGGTRVDVRR
B10: 2F5 I100FS (antibody, V domains shown)
VH: RITLKESGPPLVKPTQTLTLTCSFSGFSLSDFGVGVGWIRQPPGKALEWLAIIYSDDDKRYSPSLNTRLTITKDTSKNQVVLVMTRVSPVDTATYFCAHRRGPTTLFGVPSARGPVNAMDVWGQGITVTISS
VL: ALQLTQSPSSLSASVGDRITITCRASQGVTSALAWYRQKPGSPPQLLIYDASSLESGVPSRFSGSGSGTEFTLTISTLRPEDFATYYCQQLHFYPHTFGGGTRVDVRR
B11: 2F5 (antibody, V domains shown)
VH: RITLKESGPPLVKPTQTLTLTCSFSGFSLSDFGVGVGWIRQPPGKALEWLAIIYSDDDKRYSPSLNTRLTITKDTSKNQVVLVMTRVSPVDTATYFCAHRRGPTTLFGVPIARGPVNAMDVWGQGITVTISS
VL: ALQLTQSPSSLSASVGDRITITCRASQGVTSALAWYRQKPGSPPQLLIYDASSLESGVPSRFSGSGSGTEFTLTISTLRPEDFATYYCQQLHFYPHTFGGGTRVDVRR
B12: 2F5 L100AW (antibody, V domains shown)
VH: RITLKESGPPLVKPTQTLTLTCSFSGFSLSDFGVGVGWIRQPPGKALEWLAIIYSDDDKRYSPSLNTRLTITKDTSKNQVVLVMTRVSPVDTATYFCAHRRGPTTWFGVPIARGPVNAMDVWGQGITVTISS
VL: ALQLTQSPSSLSASVGDRITITCRASQGVTSALAWYRQKPGSPPQLLIYDASSLESGVPSRFSGSGSGTEFTLTISTLRPEDFATYYCQQLHFYPHTFGGGTRVDVRR
B13: 2 (Heavy chain: G54S) (antibody, V domains shown)
VH: QVQLVQSGGQMKKPGESMRISCRASGYEFIDCTLNWIRLAPGKRPEWMGWLKPRGGAVNYARPLQGRVTMTRDVYSDTAFLELRSLTVDDTAVYFCTRGKNCDYNWDFEHWGRGTPVIVSS
VL: EIVLTQSPGTLSLSPGETAIISCRTSQYGSLAWYQQRPGQAPRLVIYSGSTRAAGIPDRFSGSRWGPDYNLTISNLESGDFGVYYCQQYEFFGQGTKVQVDI
B14: C32AC98S (antibody, V domains shown)
VH: QVQLVQSGGQMKKPGESMRISCRASGYEFIDSTLNWIRLAPGKRPEWMGWLKPRGGAVNYARPLQGRVTMTRDVYSDTAFLELRSLTVDDTAVYFCTRGKNADYNWDFEHWGRGTPVIVSS
VL: EIVLTQSPGTLSLSPGETAIISCRTSQYGSLAWYQQRPGQAPRLVIYSGSTRAAGIPDRFSGSRWGPDYNLTISNLESGDFGVYYCQQYEFFGQGTKVQVDI
B15: Insertion-AA (antibody, V domains shown)
VH: QVQLVQSGGQMKKPGESMRISCRASGYEFIDCTLNWIRLAPGKRPEWMGWLKPRGGAVNYARPLQGRVTMTRDVYSDTAFLELRSLTVDDTAVYFCTRGKNCDYNWDFEHWGRGTPVIVSS
VL: EIVLTQSPGTLSLSPGETAIISCRTSQYGSAALAWYQQRPGQAPRLVIYSGSTRAAGIPDRFSGSRWGPDYNLTISNLESGDFGVYYCQQYEFFGQGTKVQVDI

Tests used:
[1] = molecular target: gp41 MPER peptide (residues 657 to 669 of gp41 linked to a C-terminal C9 tag); assay: SPR
Du156.12 = assay: ELISA

Binder	Kd [1] [nM]	EC50 (Du156.12) [µg/mL]
B1	36.7	
B2	11.9	
B3	46.9	
B4	10.9	
B5	12.8	
B6	14.3	
B7	11.9	
B8	11.2	
B9	10.8	
B10	27.3	
B11	9.5	
B12	11.3	
B13		0.072
B14		0.048
B15		2.02
